Here are results for six substances from paper PMC7803741.

Like-named read-outs stand apart in the source and are kept apart here.

Assay [1] has as its target GABAA receptor-associated protein (GABARAP) (mouse) (UniProt Q9DCD6). The assay is described as follows: ITC; VP-ITC at 25 °C; 50 mM Tris pH 7.8, 100 mM NaCl, 1 mM EDTA, 1 mM DTT; γ2 subunit protein or peptide (100-200 μM) injected into GABARAP, GABARAPL1 or AP2 (10-20 μM) in the cell; one-site binding model. (In ITC the heat of successive injections is recorded.)
For assay [2], the target named is GABAAR-associated protein (GABARAP) (mouse) (UniProt Q9DCD6). The assay is described as follows: ITC; VP-ITC, 25 °C; 50 mM Tris pH 7.8, 100 mM NaCl, 1 mM EDTA, 1 mM DTT; γ2 subunit protein or peptide (100–200 μM) injected into GABARAP, GABARAPL1 or AP2 (10–20 μM) in the cell; one-site binding model.
GABAAR-associated protein (GABARAP) (mouse), sequence (Q9DCD6 whole entry): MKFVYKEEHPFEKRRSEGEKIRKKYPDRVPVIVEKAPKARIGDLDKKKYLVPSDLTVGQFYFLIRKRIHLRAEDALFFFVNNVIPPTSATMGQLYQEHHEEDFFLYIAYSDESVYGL
The target of assay [3] is clathrin adaptor protein AP2 (AP2 μ1 subunit as printed) (rat) (UniProt P84092). The assay is described as above.
clathrin adaptor protein AP2 (AP2 μ1 subunit as printed) (rat), sequence (P84092 whole entry): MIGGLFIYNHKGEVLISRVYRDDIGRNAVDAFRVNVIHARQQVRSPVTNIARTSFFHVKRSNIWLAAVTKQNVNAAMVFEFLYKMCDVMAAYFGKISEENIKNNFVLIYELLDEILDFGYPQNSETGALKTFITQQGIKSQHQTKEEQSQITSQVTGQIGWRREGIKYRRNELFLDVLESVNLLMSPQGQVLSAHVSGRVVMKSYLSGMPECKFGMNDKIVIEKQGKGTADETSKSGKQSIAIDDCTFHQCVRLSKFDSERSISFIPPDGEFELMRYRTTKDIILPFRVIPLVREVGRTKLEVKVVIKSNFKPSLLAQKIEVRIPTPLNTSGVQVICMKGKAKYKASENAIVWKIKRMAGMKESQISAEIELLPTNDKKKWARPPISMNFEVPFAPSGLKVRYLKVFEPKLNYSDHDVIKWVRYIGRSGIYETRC
Assay [4] has as its target GABARAP (UniProt Q9DCD6). The assay is described as follows: ITC. Conditions: reference: unphosphorylated synthetic γ2-GIM peptide; sites Y405.
Assay [5] has as its target clathrin adaptor protein AP2 (AP2 μ1 subunit as printed) (UniProt P84092). The assay is described as follows: ITC. Conditions: reference: unphosphorylated synthetic γ2-GIM peptide; sites Y405.
For assay [6], the target named is GABAAR-associated protein (GABARAP) (mouse) (UniProt Q9DCD6). The assay is described as follows: ITC; VP-ITC, 25 °C; 50 mM Tris pH 7.8, 100 mM NaCl, 1 mM EDTA, 1 mM DTT; γ2 subunit protein or peptide (100–200 μM) injected into GABARAP, GABARAPL1 or AP2 (10–20 μM) in the cell; one-site binding model. This is another data set of the same source.

GABARAP, sequence (Q9DCD6 whole entry, looked up): as the sequence (Q9DCD6 whole entry) above
GABAA receptor-associated protein (GABARAP) (mouse), sequence (Q9DCD6 whole entry): as above
clathrin adaptor protein AP2 (AP2 μ1 subunit as printed), sequence (P84092 whole entry, looked up, tested part not stated): as the sequence (P84092 whole entry) above

The substance “GABAA receptor γ2 subunit GIM (GABARAP interacting motif, 398-415) (peptide)” displayed a stoichiometry N in assay [1] of 1.06.

Turning to “synthetic pY403 γ2-GIM (from UniProt P22723-2 398-415) (peptide)”, the Kd stood at 0.82 µM in assay [2] and 5.2 µM in assay [3].

For the substance “recombinant of the TM3–TM4 ICD lacking the 424–441 octadecapeptide (from UniProt P22723-2 375-442) (domain or fragment)”, the Kd in assay [2] is 5.1 µM.

On to “GABAA receptor γ2 subunit (γ2-GABAAR; γ2-GIM = residues 398–415) γ2-GIM, 398-415 (from UniProt P22723-2) pY405 peptide”, for which the “binding against the reference” value in assay [4] and in assay [5] was “lost” throughout.

Regarding “GABAAR γ2 subunit GIM (GABARAP interacting motif, 398–415) (from UniProt P22723-2 398-415) (peptide)”, the Kd amounted to 4.9 µM in assay [6], 4.2 µM in assay [2] and 0.25 µM in assay [3].

With “synthesized γ2-GIM WT peptide (from UniProt P22723-2 398-415)”, the figures for the Kd in assay [2] and in assay [3] were 3.6 µM and 0.45 µM, respectively.

One may read the stoichiometry N as the number of molecules, sites or subunits per partner or assembly. Usually Kd stands for the free concentration of one partner at which half of the binding sites on the other are occupied at equilibrium, for simple one-to-one binding. A higher Kd goes with weaker binding.
